Assay results published in US20110229908A1.

What was measured:
BJ kappa Ke (human) = experiment: haemagglutination of sheep RBC coated with BJ kappa Ke
BJ kappa Bo (human) = experiment: haemagglutination of sheep RBC coated with BJ kappa Bo

Row | Binder | MAb dilution used against coated red cells (BJ kappa Ke (human)) [dilution] | MAb dilution used against coated red cells (BJ kappa Bo (human)) [dilution]
1 | monoclonal antibody KA1 (antibody, V domains shown) VH: DVQLQESGPGLVNPSQSLSLTCTVTGYSITGDYAWNWIRQFPGNKLEWMGYISYSGLTSYNPSLKSRISITRDTSKNQFFLQLNSVATEDTATYYCTSFYYGYWYFDVWGAGTTVTVSS VL: DIQMTQSPASLSASVGETVTITCRASENIYSFLTWYLQKQGKSPQLLVNNAKTLAEGVPSRFSGSGSGSQFSLKINSLQPEDFGTYYCQHHYGTPYTFGGGTKLEIKR | 1e-05 | –
2 | monoclonal antibody 1B6 (antibody, mouse IgG1, V domains shown) VH: RQFPGNKLEWMGYINYSGITSYNPSLKSRFSITRDTSKNQFFLQLNSVTTEDTATYYCASWYYGNWYFDVWGAGTTVTVSS VL: DIQMTQSPASLSVSVGETVTITCRASENIYSNLAWYQQKQGNSPQLLVYAATNLADGVPSRFSGSGSGTQYSLKINSLQSEDFGNYYCQHFWGTPWTFGGGTKLEIKR | – | 1e-05
